Earlier results, collected in US6645518B2, “Uses for medical devices having a lubricious, nitric oxide-releasing coating” (priority 1998, dated 2003).

Test system: clinical restenosis
Details: after balloon angioplasty, systemic administration, six month follow-up

B1: c7E3: potent anti-platelet agent, GPIIb/IIIa antibody, FDA-approved for use after balloon angioplasty (antibody, chains of the INN, looked up, V domains shown)
VH: EVQLQQSGTVLARPGASVKMSCEASGYTFTNYWMHWVKQRPGQGLEWIGAIYPGNSDTSYIQKFKGKAKLTAVTSTTSVYMELSSLTNEDSAVYYCTLYDGYYVFAYWGQGTLVTVSA
VL: EIVLTQSPVTLSVTPGDSVSLSCRASRDISNNLHWFQQTSHESPRLLIKYASQSMSGIPSRFSGSGSGTDFTLSINSVETEDFGMYFCQQTNSWPYTFGGGTKLEIK
For B1, the “reduction of clinical restenosis” value is listed as 20-30%.
